Square brackets hold non-standard residues; d marks the D form. * marks the point of attachment. hArg = N=C(N)NCCCC[C@H](N)C(=O)O; Pentanoyl = CCCCC(=O)*
Biological target: PCSK9Δhelix (human) (UniProt Q8NBP7)
Assay: TR-FRET competition, Ab20 as competitor

Sequence of PCSK9Δhelix (human) (Q8NBP7 31-152 limits assumed, stated change not applied, chain 1 of 2): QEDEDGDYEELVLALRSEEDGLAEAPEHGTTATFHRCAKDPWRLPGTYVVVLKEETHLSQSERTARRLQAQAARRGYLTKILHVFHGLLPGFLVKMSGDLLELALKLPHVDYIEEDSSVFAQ
Sequence of PCSK9Δhelix (human) (Q8NBP7 other isoform, or with tags, fused parts or gaps mutant limits assumed, chain 2 of 2): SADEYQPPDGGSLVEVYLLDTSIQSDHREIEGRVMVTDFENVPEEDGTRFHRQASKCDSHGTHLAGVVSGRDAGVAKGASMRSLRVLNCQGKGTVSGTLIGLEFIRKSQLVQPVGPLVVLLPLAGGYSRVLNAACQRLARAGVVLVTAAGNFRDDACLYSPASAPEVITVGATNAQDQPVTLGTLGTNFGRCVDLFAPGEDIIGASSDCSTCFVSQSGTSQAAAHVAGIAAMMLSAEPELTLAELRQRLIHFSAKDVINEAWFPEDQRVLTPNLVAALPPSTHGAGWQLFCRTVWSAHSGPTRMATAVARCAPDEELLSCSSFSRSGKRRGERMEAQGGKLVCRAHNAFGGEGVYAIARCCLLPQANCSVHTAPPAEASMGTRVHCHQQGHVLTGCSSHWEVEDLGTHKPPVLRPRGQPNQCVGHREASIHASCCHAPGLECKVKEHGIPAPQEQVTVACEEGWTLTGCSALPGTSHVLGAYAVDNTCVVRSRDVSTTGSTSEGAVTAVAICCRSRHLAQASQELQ

Row | Binder | fold increase of inhibition against the arginine peptide (Compound 112) | IC50
1 | Pentanoyl-WNLV[hArg]IGLTR-NH2 (SMILES CCCCC(=O)N[C@@H](Cc1c[nH]c2ccccc12)C(=O)N[C@@H](CC(N)=O)C(=O)N[C@@H](CC(C)C)C(=O)N[C@H](C(=O)N[C@@H](CCCCNC(=N)N)C(=O)N[C@H](C(=O)NCC(=O)N[C@@H](CC(C)C)C(=O)N[C@H](C(=O)N[C@@H](CCCNC(=N)N)C(N)=O)[C@@H](C)O)[C@@H](C)CC)C(C)C) [Compound 118] | 5 fold | –
2 | Pentanoyl-WNLVRIGLLR-NH2 (SMILES CCCCC(=O)N[C@@H](Cc1c[nH]c2ccccc12)C(=O)N[C@@H](CC(N)=O)C(=O)N[C@@H](CC(C)C)C(=O)N[C@H](C(=O)N[C@@H](CCCNC(=N)N)C(=O)N[C@H](C(=O)NCC(=O)N[C@@H](CC(C)C)C(=O)N[C@@H](CC(C)C)C(=O)N[C@@H](CCCNC(=N)N)C(N)=O)[C@@H](C)CC)C(C)C) [Compound 111] | – | < 10 µM

Source: patent US20190177366A1
